# Starred links: 1 amine or outer side, 2 acyl side, 3 side chain; linkers in the order of their positions; H or OH if unused. Non-standard residues stand in square brackets, D forms with d. Groups on a side chain read outwards from the residue. No end group written: not given here. *: point of attachment. Arachidoyl = CCCCCCCCCCCCCCCCCCCC(=O)*; γGlu = O=C(O)[C@H](CCC(=O)[*:2])N[*:1]; AEEA = NCCOCCOCC(=O)O; Aib = CC(C)(N)C(=O)O
# T1: human glucose-dependent insulinotropic polypeptide receptor (GIPR) (human, UniProt P48546 22-466)
# T1 sequence (looked up): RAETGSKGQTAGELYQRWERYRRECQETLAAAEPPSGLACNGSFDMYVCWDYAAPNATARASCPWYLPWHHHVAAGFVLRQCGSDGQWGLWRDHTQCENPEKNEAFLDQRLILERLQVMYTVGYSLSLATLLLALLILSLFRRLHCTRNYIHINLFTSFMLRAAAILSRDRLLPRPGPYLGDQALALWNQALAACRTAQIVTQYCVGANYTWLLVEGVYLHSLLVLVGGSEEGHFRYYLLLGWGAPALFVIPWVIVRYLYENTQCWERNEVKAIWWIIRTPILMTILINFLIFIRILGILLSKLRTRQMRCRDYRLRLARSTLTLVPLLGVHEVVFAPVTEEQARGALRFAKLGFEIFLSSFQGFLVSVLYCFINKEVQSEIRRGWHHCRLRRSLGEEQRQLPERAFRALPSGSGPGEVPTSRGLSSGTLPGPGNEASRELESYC
# How the values were obtained:
# [1] = target: human glucagon-like peptide-1 receptor (GLP-1R) (human, UniProt P43220 24-463); assay: cell-based or functional assay
# [2] = target: T1, human glucose-dependent insulinotropic …; assay: cell-based or functional assay
Binder,"Activity against human GLP-1R (EC50 nM); cAMP HTRF, CHO-K1/GLP-1R/CRE-luc cells [1]","Activity against human GIPR (EC50 nM); cAMP HTRF, CHO-K1 cells overexpressing hGIP receptor [2]"
Y[Aib]EGTFTSDYSIYLEK([AEEA-AEEA-γGlu-Arachidoyl])IAAQEFVNWLIAGGPSSGAPPPS-NH2 [compound 9#],0.049 nM,0.04 nM
Y[Aib]EGTFTSDYSIYLEK([AEEA-AEEA-γGlu-Arachidoyl])IAAQEFINWLIAGGPSSGAPPPS-NH2 (N-terminus assumed; SMILES CCCCCCCCCCCCCCCCCCCC(=O)N[C@@H](CCC(=O)NCCOCCOCC(=O)NCCOCCOCC(=O)NCCCC[C@H](NC(=O)[C@H](CCC(=O)O)NC(=O)[C@H](CC(C)C)NC(=O)[C@H](Cc1ccc(O)cc1)NC(=O)[C@@H](NC(=O)[C@H](CO)NC(=O)[C@H](Cc1ccc(O)cc1)NC(=O)[C@H](CC(=O)O)NC(=O)[C@H](CO)NC(=O)[C@@H](NC(=O)[C@H](Cc1ccccc1)NC(=O)[C@@H](NC(=O)CNC(=O)[C@H](CCC(=O)O)NC(=O)C(C)(C)NC(=O)[C@@H](N)Cc1ccc(O)cc1)[C@@H](C)O)[C@@H](C)O)[C@@H](C)CC)C(=O)N[C@H](C(=O)N[C@@H](C)C(=O)N[C@@H](C)C(=O)N[C@@H](CCC(N)=O)C(=O)N[C@@H](CCC(=O)O)C(=O)N[C@@H](Cc1ccccc1)C(=O)N[C@H](C(=O)N[C@@H](CC(N)=O)C(=O)N[C@@H](Cc1c[nH]c2ccccc12)C(=O)N[C@@H](CC(C)C)C(=O)N[C@H](C(=O)N[C@@H](C)C(=O)NCC(=O)NCC(=O)N1CCC[C@H]1C(=O)N[C@@H](CO)C(=O)N[C@@H](CO)C(=O)NCC(=O)N[C@@H](C)C(=O)N1CCC[C@H]1C(=O)N1CCC[C@H]1C(=O)N1CCC[C@H]1C(=O)N[C@@H](CO)C(N)=O)[C@@H](C)CC)[C@@H](C)CC)[C@@H](C)CC)C(=O)O) [compound 10#],0.065 nM,0.056 nM
Y[Aib]EGTFTSDYSIYK([AEEA-AEEA-γGlu-Arachidoyl])EKIAAQEFVNWLIAGGPSSGAPPPS-NH2 (N-terminus assumed; SMILES CCCCCCCCCCCCCCCCCCCC(=O)N[C@@H](CCC(=O)NCCOCCOCC(=O)NCCOCCOCC(=O)NCCCC[C@H](NC(=O)[C@H](Cc1ccc(O)cc1)NC(=O)[C@@H](NC(=O)[C@H](CO)NC(=O)[C@H](Cc1ccc(O)cc1)NC(=O)[C@H](CC(=O)O)NC(=O)[C@H](CO)NC(=O)[C@@H](NC(=O)[C@H](Cc1ccccc1)NC(=O)[C@@H](NC(=O)CNC(=O)[C@H](CCC(=O)O)NC(=O)C(C)(C)NC(=O)[C@@H](N)Cc1ccc(O)cc1)[C@@H](C)O)[C@@H](C)O)[C@@H](C)CC)C(=O)N[C@@H](CCC(=O)O)C(=O)N[C@@H](CCCCN)C(=O)N[C@H](C(=O)N[C@@H](C)C(=O)N[C@@H](C)C(=O)N[C@@H](CCC(N)=O)C(=O)N[C@@H](CCC(=O)O)C(=O)N[C@@H](Cc1ccccc1)C(=O)N[C@H](C(=O)N[C@@H](CC(N)=O)C(=O)N[C@@H](Cc1c[nH]c2ccccc12)C(=O)N[C@@H](CC(C)C)C(=O)N[C@H](C(=O)N[C@@H](C)C(=O)NCC(=O)NCC(=O)N1CCC[C@H]1C(=O)N[C@@H](CO)C(=O)N[C@@H](CO)C(=O)NCC(=O)N[C@@H](C)C(=O)N1CCC[C@H]1C(=O)N1CCC[C@H]1C(=O)N1CCC[C@H]1C(=O)N[C@@H](CO)C(N)=O)[C@@H](C)CC)C(C)C)[C@@H](C)CC)C(=O)O) [compound 12#],0.03 nM,0.17 nM
Y[Aib]EGTFTSDYSIYK([AEEA-AEEA-γGlu-Arachidoyl])ERIAAQEFVNWLIAGGPSSGAPPPS-NH2 (N-terminus assumed; SMILES CCCCCCCCCCCCCCCCCCCC(=O)N[C@@H](CCC(=O)NCCOCCOCC(=O)NCCOCCOCC(=O)NCCCC[C@H](NC(=O)[C@H](Cc1ccc(O)cc1)NC(=O)[C@@H](NC(=O)[C@H](CO)NC(=O)[C@H](Cc1ccc(O)cc1)NC(=O)[C@H](CC(=O)O)NC(=O)[C@H](CO)NC(=O)[C@@H](NC(=O)[C@H](Cc1ccccc1)NC(=O)[C@@H](NC(=O)CNC(=O)[C@H](CCC(=O)O)NC(=O)C(C)(C)NC(=O)[C@@H](N)Cc1ccc(O)cc1)[C@@H](C)O)[C@@H](C)O)[C@@H](C)CC)C(=O)N[C@@H](CCC(=O)O)C(=O)N[C@@H](CCCNC(=N)N)C(=O)N[C@H](C(=O)N[C@@H](C)C(=O)N[C@@H](C)C(=O)N[C@@H](CCC(N)=O)C(=O)N[C@@H](CCC(=O)O)C(=O)N[C@@H](Cc1ccccc1)C(=O)N[C@H](C(=O)N[C@@H](CC(N)=O)C(=O)N[C@@H](Cc1c[nH]c2ccccc12)C(=O)N[C@@H](CC(C)C)C(=O)N[C@H](C(=O)N[C@@H](C)C(=O)NCC(=O)NCC(=O)N1CCC[C@H]1C(=O)N[C@@H](CO)C(=O)N[C@@H](CO)C(=O)NCC(=O)N[C@@H](C)C(=O)N1CCC[C@H]1C(=O)N1CCC[C@H]1C(=O)N1CCC[C@H]1C(=O)N[C@@H](CO)C(N)=O)[C@@H](C)CC)C(C)C)[C@@H](C)CC)C(=O)O) [compound 13#],0.017 nM,0.13 nM
Y[Aib]EGTFTSDYSIYK([AEEA-AEEA-γGlu-Arachidoyl])EKIAAQEFINWLIAGGPSSGAPPPS-NH2 (N-terminus assumed; SMILES CCCCCCCCCCCCCCCCCCCC(=O)N[C@@H](CCC(=O)NCCOCCOCC(=O)NCCOCCOCC(=O)NCCCC[C@H](NC(=O)[C@H](Cc1ccc(O)cc1)NC(=O)[C@@H](NC(=O)[C@H](CO)NC(=O)[C@H](Cc1ccc(O)cc1)NC(=O)[C@H](CC(=O)O)NC(=O)[C@H](CO)NC(=O)[C@@H](NC(=O)[C@H](Cc1ccccc1)NC(=O)[C@@H](NC(=O)CNC(=O)[C@H](CCC(=O)O)NC(=O)C(C)(C)NC(=O)[C@@H](N)Cc1ccc(O)cc1)[C@@H](C)O)[C@@H](C)O)[C@@H](C)CC)C(=O)N[C@@H](CCC(=O)O)C(=O)N[C@@H](CCCCN)C(=O)N[C@H](C(=O)N[C@@H](C)C(=O)N[C@@H](C)C(=O)N[C@@H](CCC(N)=O)C(=O)N[C@@H](CCC(=O)O)C(=O)N[C@@H](Cc1ccccc1)C(=O)N[C@H](C(=O)N[C@@H](CC(N)=O)C(=O)N[C@@H](Cc1c[nH]c2ccccc12)C(=O)N[C@@H](CC(C)C)C(=O)N[C@H](C(=O)N[C@@H](C)C(=O)NCC(=O)NCC(=O)N1CCC[C@H]1C(=O)N[C@@H](CO)C(=O)N[C@@H](CO)C(=O)NCC(=O)N[C@@H](C)C(=O)N1CCC[C@H]1C(=O)N1CCC[C@H]1C(=O)N1CCC[C@H]1C(=O)N[C@@H](CO)C(N)=O)[C@@H](C)CC)[C@@H](C)CC)[C@@H](C)CC)C(=O)O) [compound 14#],0.013 nM,0.13 nM
Y[Aib]EGTFTSDYSIYK([AEEA-AEEA-γGlu-Arachidoyl])ERIAAQEFINWLIAGGPSSGAPPPS-NH2 (N-terminus assumed; SMILES CCCCCCCCCCCCCCCCCCCC(=O)N[C@@H](CCC(=O)NCCOCCOCC(=O)NCCOCCOCC(=O)NCCCC[C@H](NC(=O)[C@H](Cc1ccc(O)cc1)NC(=O)[C@@H](NC(=O)[C@H](CO)NC(=O)[C@H](Cc1ccc(O)cc1)NC(=O)[C@H](CC(=O)O)NC(=O)[C@H](CO)NC(=O)[C@@H](NC(=O)[C@H](Cc1ccccc1)NC(=O)[C@@H](NC(=O)CNC(=O)[C@H](CCC(=O)O)NC(=O)C(C)(C)NC(=O)[C@@H](N)Cc1ccc(O)cc1)[C@@H](C)O)[C@@H](C)O)[C@@H](C)CC)C(=O)N[C@@H](CCC(=O)O)C(=O)N[C@@H](CCCNC(=N)N)C(=O)N[C@H](C(=O)N[C@@H](C)C(=O)N[C@@H](C)C(=O)N[C@@H](CCC(N)=O)C(=O)N[C@@H](CCC(=O)O)C(=O)N[C@@H](Cc1ccccc1)C(=O)N[C@H](C(=O)N[C@@H](CC(N)=O)C(=O)N[C@@H](Cc1c[nH]c2ccccc12)C(=O)N[C@@H](CC(C)C)C(=O)N[C@H](C(=O)N[C@@H](C)C(=O)NCC(=O)NCC(=O)N1CCC[C@H]1C(=O)N[C@@H](CO)C(=O)N[C@@H](CO)C(=O)NCC(=O)N[C@@H](C)C(=O)N1CCC[C@H]1C(=O)N1CCC[C@H]1C(=O)N1CCC[C@H]1C(=O)N[C@@H](CO)C(N)=O)[C@@H](C)CC)[C@@H](C)CC)[C@@H](C)CC)C(=O)O) [compound 15#],0.015 nM,0.23 nM
